Assay results: patent US5516515A, “Separation of alpha interferon receptor proteins and antibodies therefor” (priority 1990, dated 1996)

What was measured:
[1] = test system: human HEp-2 cells challenged with vesticular stomatitis virus (Indiana Strain); assay: cytopathic effect (CPE) assay of interferon biological (antiviral) activity; type: cell-based; conditions: NIH reference units
Description: Ultrapure natural interferon alpha was prepared by incubating human peripheral blood cultures with Sendai virus. The culture supernatant was purified over an anti-interferon alpha column (NK-2 sepharose). […] The biological activity of interferons alpha, beta and gamma were determined by the cytopathic effect (CPE) assay on human HEp-2 cells challenged with vesticular stomatitis virus (Indiana Strain). All titers were calibrated against the NIH reference standards for alpha (#Ga23-902-503) and gamma (Gg 23-901-530) interferons. All titers are expressed as NIH reference units.

[2] = biological target: T1, Daudi cell receptor sites (Homo sapiens, UniProt P17181+P48551); assay: Competition experiments: displacement of 125I-IFN-alpha-2 from Daudi cells; type: binding; conditions: 100 fold excess of unlabeled IFN
T1 construct: endogenous in cells; host or cells: Daudi (human lymphoblastoid) cells
T1 sequence (P48551 27-515): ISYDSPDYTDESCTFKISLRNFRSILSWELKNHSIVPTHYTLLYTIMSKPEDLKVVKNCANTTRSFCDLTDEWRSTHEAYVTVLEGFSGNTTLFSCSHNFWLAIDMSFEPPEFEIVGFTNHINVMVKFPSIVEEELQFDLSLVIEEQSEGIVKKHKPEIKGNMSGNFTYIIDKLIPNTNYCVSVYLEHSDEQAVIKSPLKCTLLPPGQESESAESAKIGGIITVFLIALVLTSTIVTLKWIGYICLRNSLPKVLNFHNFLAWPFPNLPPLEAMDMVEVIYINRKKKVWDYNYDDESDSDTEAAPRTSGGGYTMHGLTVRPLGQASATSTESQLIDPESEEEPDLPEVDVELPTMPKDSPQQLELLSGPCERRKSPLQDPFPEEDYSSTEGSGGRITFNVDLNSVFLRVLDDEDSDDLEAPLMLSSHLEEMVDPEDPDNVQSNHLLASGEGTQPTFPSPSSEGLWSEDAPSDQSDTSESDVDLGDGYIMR
T1 sequence (P17181 28-557): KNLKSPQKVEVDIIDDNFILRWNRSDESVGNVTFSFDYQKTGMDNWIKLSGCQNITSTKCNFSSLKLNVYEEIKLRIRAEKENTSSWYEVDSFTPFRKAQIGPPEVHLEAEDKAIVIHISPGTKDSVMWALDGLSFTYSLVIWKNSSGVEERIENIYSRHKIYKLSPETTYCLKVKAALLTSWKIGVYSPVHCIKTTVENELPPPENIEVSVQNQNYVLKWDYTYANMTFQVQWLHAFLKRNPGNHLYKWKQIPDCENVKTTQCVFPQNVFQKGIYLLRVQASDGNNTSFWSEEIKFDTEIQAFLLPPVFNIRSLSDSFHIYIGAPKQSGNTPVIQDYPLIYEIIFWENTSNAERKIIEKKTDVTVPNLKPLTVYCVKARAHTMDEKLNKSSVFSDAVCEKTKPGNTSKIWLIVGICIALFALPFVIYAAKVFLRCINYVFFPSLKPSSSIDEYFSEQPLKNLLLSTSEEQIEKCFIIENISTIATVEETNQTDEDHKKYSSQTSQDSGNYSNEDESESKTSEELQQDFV

B1: IFN gamma: Human IFN gamma produced in human peripheral blood cultures containing lymphocytes stimulated with phytohemagglutinin, purified by affinity chromatography (protein, UniProt P01579 24-161, looked up)
Interferon gamma: QDPYVKEAENLKKYFNAGHSDVADNGTLFLGILKNWKEESDRKIMQSQIVSFYFKLFKNFKDDQSIQKSVETIKEDMNVKFFNSNKKKRDDFEKLTNYSVTDLNVQRKAIHELIQVMAELSPAAKTGKRKRSQMLFRG
[1]
  specific activity: 2×10^7 U/rag of protein
[2]
  reduction in the binding of 125I-IFN-alpha2 for Daudi cells: does not compete
